What all share (experiment): EMSA
A general note: Mobility shift assays separate free from complexed probe on a gel.

For one data set, the target named is T1, FL-Pot1 (Schizosaccharomyces pombe, UniProt O13988 1-555).
T1 sequence: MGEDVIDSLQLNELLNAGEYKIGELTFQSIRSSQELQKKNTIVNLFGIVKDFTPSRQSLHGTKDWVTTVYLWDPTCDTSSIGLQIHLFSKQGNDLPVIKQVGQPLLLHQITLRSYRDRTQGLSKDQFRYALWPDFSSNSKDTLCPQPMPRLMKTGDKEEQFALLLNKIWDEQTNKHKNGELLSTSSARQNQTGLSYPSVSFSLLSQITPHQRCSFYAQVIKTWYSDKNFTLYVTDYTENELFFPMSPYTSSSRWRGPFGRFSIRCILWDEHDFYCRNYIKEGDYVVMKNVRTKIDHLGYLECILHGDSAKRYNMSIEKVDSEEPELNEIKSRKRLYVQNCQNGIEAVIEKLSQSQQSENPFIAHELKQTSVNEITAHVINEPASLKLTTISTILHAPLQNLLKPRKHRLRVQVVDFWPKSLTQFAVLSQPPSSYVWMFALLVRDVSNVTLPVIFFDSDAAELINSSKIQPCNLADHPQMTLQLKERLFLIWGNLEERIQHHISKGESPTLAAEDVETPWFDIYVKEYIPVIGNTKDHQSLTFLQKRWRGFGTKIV

Another data set has as its target T2, Pot1-DBD_D64A (Schizosaccharomyces pombe, UniProt O13988 1-389, D64A).
T2 sequence: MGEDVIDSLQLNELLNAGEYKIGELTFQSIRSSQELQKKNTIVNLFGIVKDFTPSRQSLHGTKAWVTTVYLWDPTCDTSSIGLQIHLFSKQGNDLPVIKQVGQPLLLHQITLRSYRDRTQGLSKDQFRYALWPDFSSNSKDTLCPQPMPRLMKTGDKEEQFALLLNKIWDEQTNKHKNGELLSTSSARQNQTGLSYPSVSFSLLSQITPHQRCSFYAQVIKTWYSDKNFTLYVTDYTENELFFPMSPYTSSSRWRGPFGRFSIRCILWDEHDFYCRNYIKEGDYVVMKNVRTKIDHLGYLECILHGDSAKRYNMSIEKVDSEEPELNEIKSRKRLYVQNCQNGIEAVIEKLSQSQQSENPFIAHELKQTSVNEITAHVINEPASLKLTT

The target in another data set is T3, Pot1-DBD_T62A (Schizosaccharomyces pombe, UniProt O13988 1-389, T62A).
T3 sequence: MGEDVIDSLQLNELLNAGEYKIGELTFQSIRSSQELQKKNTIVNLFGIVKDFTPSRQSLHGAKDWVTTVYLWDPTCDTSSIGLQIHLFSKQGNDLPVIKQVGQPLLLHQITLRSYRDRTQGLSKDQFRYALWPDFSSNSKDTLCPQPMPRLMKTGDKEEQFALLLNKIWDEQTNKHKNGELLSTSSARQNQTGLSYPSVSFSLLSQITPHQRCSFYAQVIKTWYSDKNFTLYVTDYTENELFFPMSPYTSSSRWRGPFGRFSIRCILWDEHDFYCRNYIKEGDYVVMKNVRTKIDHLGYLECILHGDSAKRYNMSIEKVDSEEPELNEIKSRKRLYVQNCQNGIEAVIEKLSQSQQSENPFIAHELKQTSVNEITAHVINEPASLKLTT

A further data set has as its target T4, Pot1-DBD_S123A (Schizosaccharomyces pombe, UniProt O13988 1-389, S123A).
T4 sequence: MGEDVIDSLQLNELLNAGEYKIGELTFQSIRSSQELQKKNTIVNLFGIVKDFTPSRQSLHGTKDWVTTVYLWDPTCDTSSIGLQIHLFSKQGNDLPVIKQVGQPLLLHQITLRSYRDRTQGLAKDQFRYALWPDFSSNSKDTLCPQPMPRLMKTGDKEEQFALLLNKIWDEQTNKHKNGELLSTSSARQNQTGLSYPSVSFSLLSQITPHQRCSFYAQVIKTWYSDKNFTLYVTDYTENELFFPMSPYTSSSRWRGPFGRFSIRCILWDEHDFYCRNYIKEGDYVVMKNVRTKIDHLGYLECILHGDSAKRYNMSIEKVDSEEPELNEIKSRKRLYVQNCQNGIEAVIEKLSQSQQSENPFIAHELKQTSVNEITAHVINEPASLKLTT

The target in a further data set is T5, Pot1-DBD_L122A (Schizosaccharomyces pombe, UniProt O13988 1-389, L122A).
T5 sequence: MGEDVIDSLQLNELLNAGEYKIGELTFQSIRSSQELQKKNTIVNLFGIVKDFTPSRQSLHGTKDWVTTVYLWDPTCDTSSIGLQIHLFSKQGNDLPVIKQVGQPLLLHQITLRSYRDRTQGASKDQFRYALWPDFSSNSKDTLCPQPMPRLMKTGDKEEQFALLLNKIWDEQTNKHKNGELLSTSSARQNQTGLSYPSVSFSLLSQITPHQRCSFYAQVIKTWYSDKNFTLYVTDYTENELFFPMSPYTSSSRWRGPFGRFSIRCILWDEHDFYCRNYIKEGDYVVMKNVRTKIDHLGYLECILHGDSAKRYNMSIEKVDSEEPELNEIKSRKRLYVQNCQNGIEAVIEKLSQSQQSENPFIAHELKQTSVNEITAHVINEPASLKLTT

A further data set has as its target T6, Pot1-DBD_Y115A (Schizosaccharomyces pombe, UniProt O13988 1-389, Y115A).
T6 sequence: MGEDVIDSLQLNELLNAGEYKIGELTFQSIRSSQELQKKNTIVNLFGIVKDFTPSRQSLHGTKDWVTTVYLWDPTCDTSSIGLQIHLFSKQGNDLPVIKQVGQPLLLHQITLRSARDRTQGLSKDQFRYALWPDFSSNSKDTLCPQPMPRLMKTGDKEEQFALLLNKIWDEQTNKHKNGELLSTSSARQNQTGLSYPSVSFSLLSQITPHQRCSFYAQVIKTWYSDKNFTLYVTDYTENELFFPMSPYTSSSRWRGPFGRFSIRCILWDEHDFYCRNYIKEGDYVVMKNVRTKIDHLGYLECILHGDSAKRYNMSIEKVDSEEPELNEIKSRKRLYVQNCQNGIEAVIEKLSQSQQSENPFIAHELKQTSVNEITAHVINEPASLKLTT

A further data set has as its target T7, Pot1-DBD_F88A (Schizosaccharomyces pombe, UniProt O13988 1-389, F88A).
T7 sequence: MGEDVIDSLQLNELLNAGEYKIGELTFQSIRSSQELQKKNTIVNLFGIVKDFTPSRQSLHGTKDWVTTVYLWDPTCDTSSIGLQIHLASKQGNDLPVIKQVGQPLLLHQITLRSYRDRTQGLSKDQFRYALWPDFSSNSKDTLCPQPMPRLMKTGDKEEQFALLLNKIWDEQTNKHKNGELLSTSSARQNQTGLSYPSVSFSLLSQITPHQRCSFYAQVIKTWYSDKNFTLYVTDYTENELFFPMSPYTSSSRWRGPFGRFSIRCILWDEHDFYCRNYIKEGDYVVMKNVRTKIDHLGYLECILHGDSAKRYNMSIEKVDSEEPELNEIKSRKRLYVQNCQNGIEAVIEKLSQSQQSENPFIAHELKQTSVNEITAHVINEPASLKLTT

The next data set has as its target T8, Pot1-DBD (Schizosaccharomyces pombe, UniProt O13988 1-389).
T8 sequence: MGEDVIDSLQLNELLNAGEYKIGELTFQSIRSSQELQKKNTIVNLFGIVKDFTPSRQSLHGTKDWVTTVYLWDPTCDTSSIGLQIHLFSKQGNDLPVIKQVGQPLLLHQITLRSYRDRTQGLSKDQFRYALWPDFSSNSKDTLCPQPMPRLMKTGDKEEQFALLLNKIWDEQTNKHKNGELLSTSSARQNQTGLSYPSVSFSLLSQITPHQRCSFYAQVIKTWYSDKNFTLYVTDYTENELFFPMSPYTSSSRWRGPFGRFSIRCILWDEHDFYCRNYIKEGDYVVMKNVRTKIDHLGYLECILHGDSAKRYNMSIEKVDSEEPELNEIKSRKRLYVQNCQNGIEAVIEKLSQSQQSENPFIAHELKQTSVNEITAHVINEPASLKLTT

For orientation: Kd means the concentration at which binding is half-saturated. Read a high Kd as a looser complex.

B1: 15_T3U (ssDNA)
DNA: GGUTACGGTTACGGT
modifications: U at 3 = deoxyuridine
B1 had a Kd in the data set with FL-Pot1 of 2.6 ± 0.2 pM.

B2: 15_T4U (ssDNA)
DNA: GGTUACGGTTACGGT
modifications: U at 4 = deoxyuridine
In turn, B2 registered a Kd with FL-Pot1 of 3 ± 0.4 pM.

B3: 14mer (ssDNA)
DNA: GGTTACGGTTACGG
As for B3, the dissociation constant Kd with FL-Pot1 is 2.4 ± 0.4 pM.

B4: 15mer_2xAC (ssDNA)
DNA: GGTTACACGGTTACACGGT
In the data set with FL-Pot1, B4 came in with a Kd of 3.2 ± 0.3 pM.

B5: 6mer_6 comp (ssDNA)
DNA: GGTTACCCAATG
On to B5, for which, in the data set with FL-Pot1, the affinity, expressed as Kd, was 9.5 ± 0.3 pM.

B6: 12mer (ssDNA)
DNA: GGTTACGGTTAC
Regarding B6, the dissociation constant Kd with FL-Pot1 worked out at 2.8 ± 0.4 pM; with Pot1-DBD_D64A, 3400 ± 670 pM; with Pot1-DBD_T62A it was 48 ± 8 pM; with Pot1-DBD_S123A, 8.2 ± 0.9 pM; in the data set with Pot1-DBD_L122A it was 770 ± 230 pM; in the data set with Pot1-DBD_Y115A, 49 ± 5 pM. Further, the Kd came to 7700 ± 1800 pM with Pot1-DBD_F88A and 4 ± 0.3 pM with Pot1-DBD.

B7: 16mer (ssDNA)
DNA: GGTTACGGTTACGGTT
B7 had a Kd with FL-Pot1 of 2.2 ± 0.04 pM.

B8: 18mer (ssDNA)
DNA: GGTTACGGTTACGGTTAC
In turn, B8 yielded a Kd with FL-Pot1 of 3.8 ± 0.3 pM.

B9: 17mer (ssDNA)
DNA: GGTTACGGTTACGGTTA
For the molecule B9, binding in the data set with FL-Pot1 was put at a Kd of 2.3 ± 0.1 pM.

B10: T15 (ssDNA)
DNA: TTTTTTTTTTTTTTT
In the data set with FL-Pot1, B10 had a Kd of 8600 ± 1900 pM.

B11: 15 comp GTT (ssDNA)
DNA: CGTTTGCCAATGCCA
Take B11: binding with FL-Pot1 was put at a Kd of 10600 ± 300 pM.

B12: 13mer (ssDNA)
DNA: GGTTACGGTTACG
Turning to B12, in the data set with FL-Pot1, the dissociation constant Kd was found to be 2.3 ± 0.3 pM.

B13: 6mer_T9 (ssDNA)
DNA: GGTTACTTTTTTTTT
Regarding B13, the dissociation constant (Kd) with FL-Pot1 was found to be 2.6 ± 0.2 pM.

B14: 6mer_T6 (ssDNA)
DNA: GGTTACTTTTTT
In the data set with FL-Pot1, B14 showed a dissociation constant (Kd) of 3.2 ± 0.3 pM.

B15: 15mer (ssDNA)
DNA: GGTTACGGTTACGGT
B15: the Kd with FL-Pot1 is 2.2 ± 0.1 pM; with Pot1-DBD_D64A, 18 ± 2.4 pM; in the data set with Pot1-DBD_T62A it was 6.2 ± 0.6 pM; in the data set with Pot1-DBD_S123A, 3.7 ± 0.3 pM; with Pot1-DBD_L122A, 10 ± 1.4 pM; with Pot1-DBD_Y115A, 8 ± 0.7 pM. The Kd with Pot1-DBD_F88A was 120 ± 30 pM; with Pot1-DBD it was 2.9 ± 0.3 pM.

B16: 6mer_9 comp (ssDNA)
DNA: GGTTACCCAATGCCA
In the data set with FL-Pot1, B16 had an equilibrium dissociation constant (Kd) of 3.8 ± 0.1 pM.

(Values after paper PMC3184176.)
